From patent publication US20120121583A1 (Genentech, published 2012)

B1: TW-305 (antibody, V domains shown)
VH: QEQLVESGGGLVQPGGSLTLSCKASGFDFSTYYMSWVRQAPGKGLEWIGTVYVRQGTTYYASWLNGRFTISSDNAQNTVDLKMNSLTAADTATYFCAKGGYNYDDAFVIWGPGTLVTVSF
VL: AIEMTQTPFSVSAAVGGTVTINCQASQNIYSNLAWYQQKPGQPPKLLMYTASYLASGVPSRFKGSGSRTEYTLTISGVQCADAATYYCQTAYYNSRPDTVAFGGGTEVVVK
notes: also called Antibody 305; rabbit antibody 305
B2: TW-304 (antibody, V domains shown)
VH: QSLEESGGDLVKPGASLTLTCKASGFSFSSTYYMCWVRQAPGKGLEWIGCIYVGSSGAPYYASWAKGRFTISKTSSTTVALQMTSLTPADTATYVCTRSVHFGDLWGPGTLVTVSS
VL: DVVMTQTPSPVSAAVGGTVTIKCQASQSIGNDLSWYQQKPGQRPKLLIYSVSTLASGVPSRFKGSGSGTEYSLTISDVQCADAATYYCQCIDYGNNYVGNTFGGGTEVVVK
notes: also called Antibody 304; rabbit antibody 304
B3: Antibody 27 (antibody, V domains shown)
VH: QVQLVQSGAEVKKPGSSVKVSCKASGFDFSTYYMSWVRQAPGQGLEWMGTVYVRQGTTYYASWLNGRVTITADESTSTAYMELSSLRSEDTAVYYCARGGYNYDDAFVIWGQGTLVTVSS
VL: DIQMTQSPSSVSASVGDRVTITCQASQNIYSNLAWYQQKPGKAPKLLIYTASYLASGVPSRFSGSGSGTDYTLTISSLQPEDFATYYCQTAYYNSRPDTVAFGGGTKVEIK
notes: also called humanized 305 variant 305-LC2 / 305-HC4
B4: Antibody 28 (antibody, V domains shown)
VH: EVQLLESGGGLVQPGGSLTLSCAASGFDFSTYYMSWVRQAPGKGLEWVSTVYVRQGTTYYASWLNGRFTISRDNSKNTLYLQMNSLRAEDTAVYYCAKGGYNYDDAFVIWGQGTLVTVSS
VL: DIQMTQSPSSVSASVGDRVTITCQASQNIYSNLAWYQQKPGKAPKLLIYTASYLASGVPSRFSGSGSGTDYTLTISSLQPEDFATYYCQTAYYNSRPDTVAFGGGTKVEIK
notes: Humanized variant of antibody 305; also called humanized 305 variant 305-LC2 / 305-HC7
B5: Antibody 34 (antibody, V domains shown)
VH: EVQLLESGGGLVQPGGSLRLSCAASGFDFSTYYMSWVRQAPGKGLEWVSTVYVRQGTTYYASWLNGRFTISRDNSKNTLYLQMNSLRAEDTAVYYCAKGGYNYDDAFVIWGQGTLVTVSS
VL: AIRMTQSPSSFSASTGDRVTITCQASQNIYSNLAWYQQKPGKAPKLLIYTASYLASGVPSRFSGSGSGTDYTLTISCLQSEDFATYYCQTAYYNSRPDTVAFGGGTKVEIK
notes: Humanized variant of antibody 305; also called humanized 305 variant 305-LC4 / 305-HC2
B6: Antibody 30 (antibody, V domains shown)
VH: EVQLLESGGGLVQPGGSLRLSCAASGFDFSTYYMSWVRQAPGKGLEWVSTVYVRQGTTYYASWLNGRFTISRDNSKNTLYLQMNSLTAEDTAVYYCAKGGYNYDDAFVIWGQGTLVTVSS
VL: DIQMTQSPSSVSASVGDRVTITCQASQNIYSNLAWYQQKPGKAPKLLIYTASYLASGVPSRFSGSGSGTDFTLTISSLQPEDFATYYCQTAYYNSRPDTVAFGGGTKVEIK
notes: Humanized variant of antibody 305; also called humanized 305 variant 305-LC1 / 305-HC10
B7: Antibody 33 (antibody, V domains shown)
VH: QVQLVQSGAEVKKPGSSVKVSCKASGFDFSTYYMSWVRQAPGQGLEWMGTVYVRQGTTYYASWLNGRVTITADESTSTAYMELSSLRSEDTAVYYCARGGYNYDDAFVIWGQGTLVTVSS
VL: AIRMTQSPSSFSASTGDRVTITCQASQNIYSNLAWYQQKPGKAPKLLIYTASYLASGVPSRFSGSGSGTDYTLTISCLQSEDFATYYCQTAYYNSRPDTVAFGGGTKVEIK
notes: Humanized variant of antibody 305; also called humanized 305 variant 305-LC4 / 305-HC4
B8: Antibody 31 (antibody, V domains shown)
VH: EVQLLESGGGLVQPGGSLTLSCAASGFDFSTYYMSWVRQAPGKGLEWVSTVYVRQGTTYYASWLNGRFTISRDNSKNTLYLQMNSLRAEDTAVYYCAKGGYNYDDAFVIWGQGTLVTVSS
VL: AIRMTQSPSSFSASTGDRVTITCQASQNIYSNLAWYQQKPGKAPKLLIYTASYLASGVPSRFSGSGSGTDYTLTISCLQSEDFATYYCQTAYYNSRPDTVAFGGGTKVEIK
notes: Humanized variant of antibody 305; also called humanized 305 variant 305-LC4 / 305-HC7
B9: Antibody 32 (antibody, V domains shown)
VH: EVQLLESGGGLVQPGGSLRLSCAASGFDFSTYYMSWVRQAPGKGLEWVSTVYVRQGTTYYASWLNGRFTISRDNSKNTLDLQMNSLRAEDTAVYYCAKGGYNYDDAFVIWGQGTLVTVSS
VL: DIQMTQSPSTLSASVGDRVTITCQASQNIYSNLAWYQQKPGKAPKLLIYTASYLASGVPSRFSGSGSGTEFTLTISSLQPDDFATYYCQTAYYNSRPDTVAFGGGTKVEIK
notes: Humanized variant of antibody 305; also called humanized 305 variant 305-LC6 / 305-HC8
B10: Antibody 29 (antibody, V domains shown)
VH: EVQLLESGGGLVQPGGSLRLSCAASGFDFSTYYMSWVRQAPGKGLEWVSTVYVRQGTTYYASWLNGRFTISRDNSKNTLDLQMNSLRAEDTAVYYCAKGGYNYDDAFVIWGQGTLVTVSS
VL: DIQMTQSPSSVSASVGDRVTITCQASQNIYSNLAWYQQKPGKAPKLLIYTASYLASGVPSRFSGSGSGTDYTLTISSLQPEDFATYYCQTAYYNSRPDTVAFGGGTKVEIK
notes: Humanized variant of antibody 305; also called humanized 305 variant 305-LC2 / 305-HC8

What was measured:
[1] = molecular target: T1, Human recombinant soluble TWEAK (human, UniProt O43508 99-249); test: cell-based or functional assay
T1 sequence: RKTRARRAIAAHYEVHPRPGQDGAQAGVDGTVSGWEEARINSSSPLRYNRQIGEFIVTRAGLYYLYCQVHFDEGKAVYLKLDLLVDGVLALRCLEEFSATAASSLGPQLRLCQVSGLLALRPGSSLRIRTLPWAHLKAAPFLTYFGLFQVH

[2] = molecular target: T2, human Flag-tagged soluble TWEAK (amino acids 106-249) (human, UniProt O43508 106-249); test: competition ELISA: antibody pre-incubated with human Flag-TWEAK 2.5 ng/ml, binding to coated human Fn14:Fc
T2 construct: N-terminal placement here is only an order of listing; not shown: Flag tag
T2 sequence: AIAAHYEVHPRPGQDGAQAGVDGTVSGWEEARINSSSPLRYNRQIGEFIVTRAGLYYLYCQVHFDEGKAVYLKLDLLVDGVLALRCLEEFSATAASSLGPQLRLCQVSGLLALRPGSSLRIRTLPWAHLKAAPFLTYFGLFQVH
Description: (§1) 96-well Maxisorp® plates (Nunc) were coated with 100 μl 1 μg/ml human Fn14:Fc (extracellular domain of human Fn14 (amino acids 1-75) fused to Fc portion of human IgG1) in PBS per well for 1.5 h at room temperature and blocked with a solution of 5% FBS in PBS for 30 minutes at room temperature under shaking. […] Wells were filled with 100 μl of anti-FLAG-HRP detection antibody, diluted 1:5000 in blocking buffer, and incubated for 1 h at room temperature. After four more wash steps, the signal was developed by addition of 100 μl 3,3,5,5-Tetramethylbenzidine (TMB) solution for approximately ten minutes. The reaction was stopped by adding 100 μl of 1 N HCl, and absorbance measured at 450 nm (reference wavelength 620 nm).

[3] = molecular target: Biotinylated murine soluble TWEAK (amino acids 81-225 of SEQ ID NO: 61) (murine) (UniProt O54907); test: Biacore SPR, biotinylated murine soluble TWEAK on SA sensor, antibody as analyte, 25 C
[4] = molecular target: T1, Human recombinant soluble TWEAK; test: cell-based or functional assay; remark: listed apart in the source
[5] = molecular target: T3, Biotinylated human soluble TWEAK (amino acids 99-249 of SEQ ID NO: 60) (human, UniProt O43508 99-249, biotinylated (sites not given)); test: Biacore SPR, biotinylated human soluble TWEAK on SA sensor, antibody as analyte, 25 C
T3 construct: Immobilised on the streptavidin sensor in the Biacore half-life assay; also called Human TWEAK; soluble human TWEAK
T3 sequence: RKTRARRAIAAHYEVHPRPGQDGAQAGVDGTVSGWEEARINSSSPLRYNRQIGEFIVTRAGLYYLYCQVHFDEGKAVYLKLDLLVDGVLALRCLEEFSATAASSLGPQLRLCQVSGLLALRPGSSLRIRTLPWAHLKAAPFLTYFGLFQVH
Description: A Biacore 2000 instrument was used with a Biacore streptavidin coated sensor mounted into the system. The system buffer HBS-ET (10 mM HEPES pH 7.4, 150 mM NaCl, 1 mM EDTA, 0.05% Tween® 20) was used at a flow rate of 100 μl/min. The sample buffer was the system buffer. Biotinylated human soluble TWEAK (amino acids 99-249 of SEQ ID NO: 60) and biotinylated murine soluble TWEAK (amino acids 81-225 of SEQ ID NO: 61) was immobilized on different flow cells on the SA sensor at 150 RU each. The flow cell FC1 was used as a blank reference cell. Each antibody was injected into the system as an analyte at 100 nM at 100 μl/min for 2 min association time. The dissociation of the immune complexes were monitored for 5 min. The sensor surface was washed with HBS-ET for 10 seconds and regenerated using 2×2 minutes injections with 10 mM glycine pH 2.25. This procedure was done at 25° C. The kinetically rate limiting step of the complex dissociation phase in the interval [240 s-300 s] was taken to calculate the dissociation rate kd [1/s] (Biacore Evaluation Software 4.0). According to the equation t1/2 diss=ln(2)/(60×kd), the half-life of the immunocomplexes in minutes was calculated.

[6] = molecular target: Mouse soluble TWEAK (mouse) (UniProt O54907); test: competition ELISA: antibody pre-incubated with mouse soluble TWEAK, binding to coated mouse Fn14:Fc
[7] = molecular target: T3, Biotinylated human soluble TWEAK (amino …); test: Biacore SPR, biotinylated human soluble TWEAK on SA sensor, antibody as analyte, 37 C
[8] = molecular target: T2, human Flag-tagged soluble TWEAK (amino …); test: competition ELISA: antibody pre-incubated with human Flag-TWEAK, binding to coated human Fn14:Fc
Description: as §1

[9] = molecular target: Biotinylated murine soluble TWEAK (amino acids 81-225 of SEQ ID NO: 61) (murine) (UniProt O54907); test: Biacore SPR, biotinylated murine soluble TWEAK on SA sensor, antibody as analyte, 37 C

Row | Binder | IL-8 Secretion IC50 [1] [ng/mL] | IC50 [2] [ng/mL] | t/2 diss [3] [min] | IL8-Secretion [4] [ng/mL] | t/2 diss [5] [min] | IC50 [6] [ng/mL] | t/2 diss [7] [min] | IC50 [8] [ng/mL] | t/2 diss [9] [min]
1 | B1 | 99 | 2.5 | – | – | – | – | – | – | –
2 | B2 | 109 | 2.8 | – | – | – | – | – | – | –
3 | B3 | – | – | 19 | 197 | 110 | 8.2 | 147 | 2.3 | 19
4 | B4 | – | – | 19 | 165 | 87 | 6.5 | 115 | 1.5 | 17
5 | B5 | – | – | 22 | 24 | 158 | 5.9 | 185 | 1.9 | 20
6 | B6 | – | – | 17 | 207 | 50 | 7.6 | 45 | 2.3 | 15
7 | B7 | – | – | 19 | 26 | 127 | 6.7 | 99 | 1.7 | 15
8 | B8 | – | – | 19 | 94 | 115 | 7.1 | 151 | 1.7 | 19
9 | B9 | – | – | 17 | 134 | 67 | 5.4 | 50 | 1.5 | 20
10 | B10 | – | – | 22 | 78 | 146 | 5.7 | 195 | 1.8 | 21
